Columns and labels:
human cc-KDM4C = biological target: T1, human cc-KDM4C (Homo sapiens, UniProt Q9H3R0); assay: FDH-assay enzyme kinetics of H3 peptide demethylation, truncated KDM4C; format: biochemical; conditions: for K m / demethylation / catalytic activity (in words) / k cat / k cat /K m: FDH-assay; for K m: 50 mM HEPES (pH 7.5), 50 mM NaCl, 50 µM FeSO4, 500 µM α-KG, 500 µM ascorbate, 2 mM NAD, substrate 10–1000 µM, e.g. 4.88 µM KDM4C, NADH fluorescence 15–30 minutes; for K m / k cat: triplicate; for demethylation / catalytic activity (in words): compared to H3(1–24)K9me3 where a change is stated; for k cat: pH 7.5, NADH fluorescence; for k cat /K m: pH 7.5, triplicate, SD by propagation of errors, unit: (min^−1 * µM^−1) * 10^3; for fold decrease in catalytic activity (k cat/K m): compared to H3(1–24)K9me3
T1 construct: Truncated constructs of KDM4A and KDM4C containing only the catalytic cores (cc-KDM4A/cc-KDM4C); made in house
T1 sequence (Q9H3R0 1-349 limits assumed): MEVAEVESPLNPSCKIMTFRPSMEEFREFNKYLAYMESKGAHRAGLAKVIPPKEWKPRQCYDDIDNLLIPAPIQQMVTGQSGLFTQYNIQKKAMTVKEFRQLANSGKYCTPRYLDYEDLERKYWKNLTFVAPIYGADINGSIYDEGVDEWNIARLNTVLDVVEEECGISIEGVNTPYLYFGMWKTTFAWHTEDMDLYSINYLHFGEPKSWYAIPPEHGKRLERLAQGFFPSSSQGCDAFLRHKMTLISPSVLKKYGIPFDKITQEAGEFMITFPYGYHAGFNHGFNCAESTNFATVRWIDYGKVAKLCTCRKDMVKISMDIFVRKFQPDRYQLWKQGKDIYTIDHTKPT
Description: (§1) The enzyme kinetics were measured using a Formaldehyde DeHydrogenase Assay (FDH-Assay) and the demethylation of substrates was confirmed when possible by MALDI-TOF-MS, see File S1 for details. The test solution contained 50 mM HEPES (pH 7.5), 50 mM NaCl, 50 µM FeSO4, 500 µM α-KG, 500 µM ascorbate, 2 mM NAD, approximately 0.05 unit of FDH and e.g. 4.88 µM KDM4C (enzyme concentration varied between batches). The reference solution was comprised of the same except substrate. The assay was initiated by adding various concentrations of H3 peptide substrates e.g. H3(1–24)K9me3 (10–1000 µM) and the increase in NADH fluorescence was measured over 15–30 minutes in 30 second intervals. Data analysis and kinetic values were obtained using programs Excel and GraphPad Prism® 5.0. For details, see File S1.
(§2) The standard deviations for k cat/K m were calculated using the statistic law of propagation of errors. Standard errors for Michaelis-Menten Kinetics were automatically given in GraphPad Prism®, with a 95% confidence interval. All enzyme kinetic curves were done in triplicate unless otherwise stated.
(§3) Test for activity of enzyme using the fluorescence FDH assay, determination of Vmax and Km of enzymes with substrate, expression and purification of cc-KDM4A and cc-KDM4C software and parameters for the FDH coupled assay, see Lohse et al.^21
as §2, with “kcat/ Km” for “k cat/K m”, “95 %” for “95%”

human cc-KDM4A = biological target: T2, human cc-KDM4A (Homo sapiens, UniProt O75164); assay: FDH-assay enzyme kinetics of H3 peptide demethylation, truncated KDM4A; format: biochemical; conditions: for K m / k cat / k cat /K m / demethylation / catalytic activity (in words): FDH-assay; for K m: 50 mM HEPES (pH 7.5), 50 mM NaCl, 50 µM FeSO4, 500 µM α-KG, 500 µM ascorbate, 2 mM NAD, substrate 10–1000 µM, NADH fluorescence 15–30 minutes; for K m / k cat / k cat /K m: triplicate; for k cat / k cat /K m: pH 7.5; for k cat: NADH fluorescence; for k cat /K m: SD by propagation of errors, unit: min^−1 * µM^−1 * 10^3; for demethylation / catalytic activity (in words): compared to H3(1–24)K9me3 where a change is stated
T2 construct: Truncated constructs of KDM4A and KDM4C containing only the catalytic cores (cc-KDM4A/cc-KDM4C); made in house
T2 sequence (O75164 1-350 limits assumed): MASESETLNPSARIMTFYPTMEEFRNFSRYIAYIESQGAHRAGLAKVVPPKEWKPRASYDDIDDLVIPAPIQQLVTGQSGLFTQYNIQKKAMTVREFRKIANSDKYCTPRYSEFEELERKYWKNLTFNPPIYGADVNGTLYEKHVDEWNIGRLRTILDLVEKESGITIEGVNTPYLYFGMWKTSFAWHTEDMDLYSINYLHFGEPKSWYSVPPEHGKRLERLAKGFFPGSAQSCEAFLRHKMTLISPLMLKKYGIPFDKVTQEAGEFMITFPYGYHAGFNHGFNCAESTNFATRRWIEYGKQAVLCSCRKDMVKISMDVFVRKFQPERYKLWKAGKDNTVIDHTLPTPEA
Description: as §1, §2, §3
as §2, with “kcat/ Km” for “k cat/K m”, “95 %” for “95%”

PHF8 = PHF8 with PHD domain; ref [5]; cited from earlier work
Source text: The enzyme kinetics of FL-KDM4A and ...

Substance | K m (human cc-KDM4C) | demethylation / catalytic activity (in words) (human cc-KDM4C) | k cat (human cc-KDM4C) | k cat /K m (human cc-KDM4C) | fold decrease in catalytic activity (k cat/K m) (human cc-KDM4C) [fold] | K m (human cc-KDM4A; cc-KDM4A) | k cat (human cc-KDM4A; cc-KDM4A) | k cat /K m (human cc-KDM4A; cc-KDM4A) | demethylation / catalytic activity (in words) (human cc-KDM4A; cc-KDM4A) | change of K m (PHF8) | change of k cat (PHF8) | fold difference in catalytic activity between cc-KDM4A and cc-KDM4C (human cc-KDM4A; cc-KDM4A versus cc-KDM4C) [fold] | fold increase in k cat/K m (human cc-KDM4A; cc-KDM4A, compared to H3(1–24)K9me3) [fold]
H3(1–24)T3(ph)K9me3: phosphorylation of threonine 3 in combination with lysine 9 trimethylation | 207±50 | did not prevent demethylation | 0.38±0.04 | 1.8±0.1 | 5 | 162±15 | 1.2±0.04 | 7.4±0.7 | did not prevent demethylation | – | – | – | –
H3(1–24)K4me3-K9me2: H3(1–24) substrate with trimethylated K4 and dimethylated K9 | – | – | – | – | – | – | – | – | – | a decrease in K m | an increase in k cat | – | –
H3(1–24)K9me3K14(ac): histone peptide containing H3K9me3 in combination with acetylation of K14 | 35.2±20 | a decrease | 0.1±0.01 | 2.8±0.2 | 3 | 33±4 | 1.0±0.03 | 30.3±3.8 | an increase in the enzymatic catalytic efficiency | – | – | 10 | 3
